Experimental data taken from patent publication US8703698B2, “Compositions and methods for treating atherosclerosis” (The University of Chicago, priority 2003, dated 2014).
Each block holds one molecule with its values, some of them ahead of it.

Assays:
[1] = system: cholesterol ester hydrolase; test: Rate of hydrolysis of cholesteryl ester in cholesterol-laden J774 cells (cholesterol ester hydrolase activity); assay type: cell-based, murine
[2] = molecular target: T1, acyl CoA:cholesterol acyl transferase (Mus musculus, UniProt Q61263); test: Incorporation of [14C]oleate into cholesteryl ester in cholesterol-laden macrophages (ACAT activity); assay type: cell-based, murine; conditions: for relative acyl CoA:cholesterol acyl transferase activity: liposomes containing 0.5 μM synthetic peptide, 6 hour incubation, cholesterol-laden murine cells
T1 construct: host or cells: J774 mouse macrophages, cholesterol-loaded
T1 sequence (Q61263 1-540): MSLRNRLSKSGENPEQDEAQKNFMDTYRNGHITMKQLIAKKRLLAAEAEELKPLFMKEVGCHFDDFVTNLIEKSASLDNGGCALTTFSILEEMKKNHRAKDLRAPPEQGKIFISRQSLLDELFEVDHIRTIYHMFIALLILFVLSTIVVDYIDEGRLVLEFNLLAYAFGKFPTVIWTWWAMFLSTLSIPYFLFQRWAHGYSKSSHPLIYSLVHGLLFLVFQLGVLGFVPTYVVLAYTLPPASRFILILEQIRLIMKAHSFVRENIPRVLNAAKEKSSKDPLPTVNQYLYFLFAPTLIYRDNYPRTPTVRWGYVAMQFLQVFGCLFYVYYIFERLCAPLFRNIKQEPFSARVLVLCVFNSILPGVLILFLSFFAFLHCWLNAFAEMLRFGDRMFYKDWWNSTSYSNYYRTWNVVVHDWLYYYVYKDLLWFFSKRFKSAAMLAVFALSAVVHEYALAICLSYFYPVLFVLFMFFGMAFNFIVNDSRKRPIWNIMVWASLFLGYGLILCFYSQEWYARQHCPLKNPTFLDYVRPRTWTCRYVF

[3] = lipoproteins or protein liposomes, tissue culture

relative acyl CoA:cholesterol acyl transferase activity [2]: no significant effect
Molecule: DTIADQEANRHGRSGKDPNYYRPPGLPDKY [SEQ ID NO:4, synthetic peptide, residues 74-103 of murine SAA2.1]
increase in cholesterol ester hydrolase activity ([1]; liposomes containing 0.5 μl synthetic peptide, cholesterol-laden J774 cells, Sandoz 58-035 present, 0 to 24 hours): 3 fold

relative acyl CoA:cholesterol acyl transferase activity [2]: two-fold decrease
Molecule: GFFSFVHEAFQGAGDMWRAY [SEQ ID NO:1, synthetic peptide, residues 1-20 of murine SAA2.1]
rate of hydrolysis of [14C]-labeled cholesteryl oleate versus protein-free liposomes ([1]; liposomes containing 0.5 μl synthetic peptide, J774 cells, Sandoz 58-035 present): no significant differences

B1: GFFSFVHEAFQGAGDMWRAYTDMKEANWKNSDKYFHARGNYDAAQRGPGGVWAAEKISD GREAFQEFFGRGHEDTIADQEANRHGRSGKDPNYYRPPGLPDKY (protein, listed as Mus musculis)
chain: GFFSFVHEAFQGAGDMWRAYTDMKEANWKNSDKYFHARGNYDAAQRGPGGVWAAEKISDGREAFQEFFGRGHEDTIADQEANRHGRSGKDPNYYRPPGLPDKY
notes: full length murine serum amyloid A isoform 2.1 purified from acute phase plasma
cholesterol ester hydrolase activity in intact cholesterol-laden macrophages [1, 3]: enhancement of cholesterol ester hydrolase activity | acyl CoA:cholesterol acyl transferase activity in intact cholesterol-laden macrophages [2, 3]: marked reduction of acyl CoA:cholesterol acyl transferase activity
